For 1 protein, Km and kcat results are on record in paper PMC5372742, “Protection of the Queuosine Biosynthesis Enzyme QueF from Irreversible Oxidation by a Conserved Intramolecular Disulfide” (Biomolecules, 2017).

Substrate in this data set: N#Cc1c[nH]c2nc(N)[nH]c(=O)c12
The data set is described as follows: steady-state kinetics, fluorescence assay of product NADP+. It counts as biochemical, Bacillus subtilis. As to conditions: co-substrate NADPH.

B1: B. subtilis QueF (Bacillus subtilis subsp. subtilis str. 168; E98Q) (protein)
chain: MTTRKESELEGVTLLGNQGTNYLFEYAPDVLESFPNKHVNRDYFVKFNCPEFTSLCPKTGQPDFATIYISYIPDEKMVESKSLKLYLFSFRNHGDFHQDCMNIIMNDLIELMDPRYIEVWGKFTPRGGISIDPYTNYGKPGTKYEKMAEYRMMNHDLYPETIDNR
notes: queF gene in pET-30Xa, expressed in E. coli BL21(DE3); ~160 amino acids, single T-fold domain, homodecamer; active sites at intersubunit interfaces
B1: the Michaelis-Menten constant (Km) is 67 µM and the catalytic constant (kcat) came out at 0.0006 s⁻¹.

What is called Km is the substrate concentration at which the rate is half of its maximum. In general, kcat refers to the number of substrate molecules converted per active site and unit of time at saturation.
